Results reported in the domain aggregation screens of Martell et al. (2025).

Experiment: soluble fraction after stress (log2 fold change); higher = more stays soluble; pooled small domains, quantitative proteomics
Details: stress: 75 degC
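Also: 20 min heating vs room temperature control held 20 min.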

| Sequence | soluble fraction (log2) |
| --- | --- |
| HMTGIESVKPSSDFTVEGNRIVAGDAEVEVYDLAGRKVNNNNLTTGVYIAKIAGSAESVKVFV | 0.144 |
| HMTGIQDVPALETRRVGNTFFFDRATDVQVYDLQGRLLQQARKVTSVSIGHLQQGVYVLTDGRASVKVQ | -1.51 |
| HMTGIQLNDRERAILQHLSDGLTTKAIAERIFLREDTVKWYRKNLLARFEQPIVAALVKWAVLEGLV | 0.0483 |
| HMTGIVVVDVVGQVGRPGLVSLPAGSRVADAITAAGGATPEADVSLLNQARLVIDGEQIRVPRPGEVIAA | -0.0555 |
| HMTGKVSHGERKSVLVSLAGSMRARGMSIDAVRAGLYADNEKRFDPPLDERDIEDVLNSAKKWGDP | -0.352 |
| HMTGMDALIGRRVFVSEEILPGDAGGRVAVDGDSWRAISVGTAKPIPAGTEVRIHGYKSLILEVEPI | -0.788 |
| HMTGQHFDLEDTDGNLVYEIDSTVPLKTFYIYDAMHTEIFRMTKELLHALPTYRFYLYGEPYGVLKKQ | -0.192 |
| HMTGRVKWYDATKGFGFVTSDEGGDVFLPKGALPAGVADLKTGQRIEFGVVDSRKGAQALGVK | 0.352 |
| HMTGSAETRGITLTDEQVTVWAKDGSWANYVYRATDGNWYDGSGRLYYENGGGEWTQAATGEQGS | 0.126 |
| HMTGSALDATIEKLLDLGSKAGSVTEDEIQIVLKNVDVTDAQLSSIYQFLRDRGVEIVSATEDDD | 0.371 |
| HMTGVPYLVRVKITDLHIRSGPGTNYASKGFIAPGAYTIVEESTGQGAALWGKLKSGKGWIALGYTEK | -2.13 |
| HMTHAISKTYAVTGEQLKNGFTLTHTFANGSTRRVDVYPGSRSGKVIAVRNTTDDTTEWIRIVEG | -0.2 |
| HMTHSEYVGRHGIAATSLRPAGAATIDGSRVDVVTSGEYIEKGTPIEVMTVNGSTVRVKAVPQIP | 0.203 |
| HMTIDANAIEKMVLDLIGEHPNEWGRYRDGDKKVQGFFVGQIMKATSGQADGKIVNQILSQHAEA | -0.0337 |
| HMTIELAEGQHFLQISKSGAPMGNVVRDLIIQTLKITNGNQIKAAKILGISRAKLRYRIEQLGINITGKNI | -2.81 |
| HMTIERVKIKETPTGWLRVRETPDNNGSEIGRANVGEIYELLGSKGEWYHIVYKGKQGFISTKYAEKVL | -0.999 |
| HMTIGEALLNLRKQLGLNQTEMAANVVSTSFYSKVERNIHDIGTKDLLQILNKHQINATYFFENLN | -1.82 |
| HMTIHVMEIKSLLPIKILDESQHLVQSFSSKNPTSYNYRLIFSDKSKLENIKKTINENKDVESIEIRYA | -0.885 |
| HMTILTSSQRKALISKMIRQGGVESQSHLVKLLAREGVKVTQATASRDLEDLGATRVRDANGEFQYVIP | -1.16 |
| HMTINQIDPASGRKVGYWIITGEMKPKEGFSPDNKIEEGIYVNSRKSGKWIKYWPNGNVRSEIIYKNGR | -0.677 |
| HMTITPEVIVNHFKNLDLFFTKNGNYYEFKKKGTENILFKYGIYKQKPNIFVKIQRYPISSLSDLERIPI | -1.53 |
| HMTIYLSENIKRLRLEKELTQETLSEFLGVTSQSVSNWERGESYPDITMLPEIADFFKVSVDELLGVNRAE | -2.26 |
| HMTIYPFNPNYLKDYQAYRVGLSLKEIDALLDFRSSGQWINSAEDFQRITGVSDSVLEQLIPYFKFS | -2.98 |
| HMTKASYKITTPSGVNVREGAGKRYAVRKAYPKGKTVTVTQTKEVNGNLWGKTSDGWFAIKYQGAVYASA | -1.39 |
| HMTKDEFLTTLRTLIQDMPPEDRRDVMNYYTEYFEDAGPEREQEVLRQLGSPEQVAREVLGG | -0.0428 |
| HMTKDVIEIVDGNKFVFHKTIATDSVSSVINKYHISEADFRTWNELTGDMKVGEEYIVQLSLH | -0.87 |

| Sequence | soluble fraction (log2) |
| --- | --- |
| HMTKKFQIQTLDKLNVRKVADWNASAVTTVKKGQILDVVAEVSPKNGSTKMYKLESGLYITASEKYVKKQG | -1.65 |
| HMTKLPLLVELSRIIPTDTWVKKIKFSLGSVEFVGISKSASRLLPIVENSSYFHDTKFIGTIVT | -0.547 |
| HMTKNIIVTTSVKTSDELVEVAKNHALNLELDFNYRNKKTIKELLSSFDGLVVIYKNKISYFEDNSELF | 0.335 |
| HMTKQDYLTALQQELNKNAVADAEDIVSEYEQHFQFKLADGFTEEEIAAKLGAPAQIALQFAG | 0.826 |
| HMTKQRSIILDLLKANQDRHLTAEEMLELLNQNHTPVSKATLYRYLDMLVSQNAVRKFIIDDQPSAGYQYL | -2 |
| HMTKSTSMDLGGFMIVEGSETVRLGGQILQKDVDYTIDYFSGKINFISEEALNPGAEISVSYEENQ | -0.225 |
| HMTKTEFLEALRRALNGNMAAASVEDNLKFYENYFYSEEAKGRSEAAVLSELGDPRILARTLIDAAER | 0.154 |
| HMTKTEFLNLLEQRLFVLNDNERADLLSEYKQHIEMKIQSGLSEEEAIADFGDPEELIKELLEAY | -0.956 |
| HMTKTFDSPEDADNDVLAKTLFQIFGVQSVYLKENFVTITKSNSVGWHTLMEKTGHTLEEHLKF | 0.0905 |
| HMTKTKFLSKDMILSAMSRTKSNRAAARYLSVSFVHYKKYAREYKDETSGVSLWEKHKNQSGTGIPK | -2.11 |
| HMTKTSQEDEDIMRHLDELHTRWPFLGQRKLIEELKDQGIQIGRKRLRRLMKVMGIEAIAPK | -2.12 |
| HMTKVMVPNVVGMSRGEAEEALRGVKLQVDLKREVSDDPEVKPEEVLRQTPDAQTSVPQGSVVTLYVADKP | 0.0285 |
| HMTKYEKKIFEIVNASRDHLTAEQVLAALREEYPAVSQATVYNNLKKLTSDGLLRKLTLADSPDRYD | -0.202 |
| HMTLAAATESREYLADLARRLDAADHGDKTRIKAEAAGLLGWSMATLHARLARDVGWTSGRK | -0.241 |
| HMTLDEFTDLMNLFKTGHIEQKPVILYGYNYWTSLKSWFEFNNMKFPEMYIDGIINTVDEFKILYNKIF | -1.38 |
| HMTLGPKQMGEAIIKNLKEKTGKSLEEWSQRILIHELTDKKEIIDFLKNDNGLGHFQALKIFEHLNGK | -0.281 |
| HMTLGQHIQALRKEAGYSQEALGEALGVTRQSISKWESDQAIPEVDKLVTLSRLFQVPVGVLLQVEQP | -0.348 |
| HMTLGSVRTVRQVLDDGRLLVADSGGNVTLVRRAGTLAKENVNTGDRVSVDSSVRFALTLIPV | -0.931 |
| HMTLPEKSKRLFSQDDFWDQIFYRIGEGQSLREVSKYYKIPYTTIHDRIHSDEGIKLKYLEALTS | -0.882 |
| HMTLPQEPTVLPRPLRVGDTVHIRTLDKDAEVLALPDARGMVAVRAGIINTKVKLTDLTLVEEK | -0.0272 |
| HMTLRDRDQALEELWGQLADVPMDSETERLLEPFMGWGVGVSRDEIWHWFDRRHSKGIGHLLYS | -1.42 |
| HMTLSENEKIIVDTIMKYQPLHIDVLNQQVKVDFYTLLGLLTKLEMEGIVLKNPGNIYKINTL | -0.378 |
| HMTLTPEQQAARRSEIVDIALRLIAENGFQKTSMREIADLAKMGKSSLYDFFKTKDEIAVYAMEKK | -0.714 |
| HMTMEFGEFLAKLRKERGYYQKEVAAYLNVTVATISNYEKNVHAPDLDTLVKLADFYDVSTDYLLQRT | -2.7 |
| HMTMGAAEAQALKDEALELYRTGGTQEDVVRAIEMYEQAAEAGNAQAASDLAYLKANGVYETAMNN | 0.263 |
| HMTMQQGTISRLNHSRGFGFLTTPDGEDLFFHRTNVHETPFARLQVGDRVTYDVQVTPRGTRADKVQLNM | -0.261 |

| Sequence | soluble fraction (log2) |
| --- | --- |
| HMTMRFVVADGQNFGSIAQSKALEAVKKGNTEFNYKDVDYTVDIQSDDFYVVYQGRDIMGYASR | -1.11 |
| HMTMTIEITVNGKTKTLVAELSLADLLRDLGMTKGRIAVELNGHIVPRSQFSSKTISNLDSIEIVQ | -3.43 |
| HMTNADRYIGQEATVTEKISNELSTGAVRIGGLVWTARTVDNSEAEEGERVTVEAIEGAKLLVKRR | 0.132 |
| HMTNEPRLTNMGFNKMLIENYKMILEYQDFFIRISTQIGIININGFDLKLGEMTADEVLVTGKIESIDL | 0.429 |
| HMTNIDRLIGQTAIVKETINNKKEQGVVRINGMDWTARTEEIDEVILKGKPVEILDIQGIKLIVRKK | -0.545 |
| HMTNIELYQRLLNLGFTPAQAKILLVQYDETRLTDNLNYVDFKKQQGNIENLPAYTTTIIKKDVRL | -1.14 |
| HMTNIQFINLKMTDNHPWIHQYIKDIILPPQTRIVMIKRNDIKTIPKGERRIEKDDELILSAFESQT | -2.06 |
| HMTNKKIILEIFQNSDKPLIVEEISKKMFEKTGKKMILSTIYRNLKNMEDVGILKKIYNEDGSYMYIF | -1.02 |
| HMTNKQEYAYQWLKSSIIENKIKPSTLLVERHLSEMLHISRTPVRTALMRLADEGFVVISPGRGMVVA | -2.32 |
| HMTNQEFNAAFKPFLDYFPTTEMTKEKINIYYLALSDLSKEQLGSAFISMVKNRVYKNFPQVAEIRQYATN | -0.803 |
| HMTNTDYPGKVVPVDPDGKTLKPDGDASYNDKPGTKVKTPTVPGYTAEVPNVEVPVGGGDIKVTYHKKPV | -0.0351 |
| HMTNVYSLIGKRGIVVEDIDWQKGTGQVKIDGELWSVKTNEQINISKGTEVEVENIEGVKVFVKPI | -0.121 |
| HMTNYGTVRPGARGQAVTALQQALIRHGYKLTADGIYGRATRQAVRAFQQKHKLKVDGIVGSKTWALLLAD | -2.13 |
| HMTPDGNATVWSANGYGVRLRTGPGKGYAIIGVYSVGTTVKVLERGPAGGWDHIQVGSRVGYMMNEFLHYY | -3.16 |
| HMTPDLSEFKERLRQILPGEPIEVRTANDGIVLSGTVTSIAALDRALDLAERYAPDKVSNLLSVG | 0.149 |
| HMTPELTAEEREVLSLLGDEPRTLAELIAASGRDYAALSVLLMGLELSQAVRQLPGNRYERF | -0.84 |
| HMTPGPFLVYITGAVERPNVLVTLDYGSRVIDALNAAGGSRIDANLDLVNLAQRLVDGDQIHVPTLR | -1.17 |
| HMTPGPYETLKPAPLGSYIEPKIGFATAIEIARKEAVQLGIKTEAGGIWYGGDFPFYNVSFFDPDD | -0.842 |
| HMTPKVTVPDVTGQTFSSAKQILESLGFTVKQQGSTDETDQVIDQNPTSGEADKGATITLTTKSS | 0.0908 |
| HMTPPAQQPHEGLPTDETATDAKTLVQKSRWWLEEEQRQREAGNTAYAERIRLALIQLLYRAERA | -0.713 |
| HMTPQNAAAVLRYLSSGAIKGVGPSTAQRIVEKFGAESLDIIQNKPEELATIRGISLSKALAVSEEYNKQY | -0.289 |
| HMTPTFSNQDLIKAGLAGSPVAKRRRERLGELLGIGYGNAKQLLKRLDLFAIDRPTFERAVAQLDQEGK | -0.465 |
| HMTPVSQIATKDIEEKIDSLSDEYKDPFILHFKGFKYKEIADQLDIPIGTVKSRIFIARKKLIDLLPDY | 0.0524 |
| HMTQEHDESVNLGKRLLDQALSRFGTSYRQLKKSEIKRILQSSGASTFKYILHQIGLGNRVPLAIANLIV | -0.0539 |
| HMTQEMPAEVKKKADAFNNAMDEENYTEAKAILAELEQNTAPSYPLLLQMQTRYAFETASWE | 0.00338 |
